Assay results as given in patent publication US20250090677A1 (MULTITUDE THERAPEUTICS, published 2025).

What was measured:
Human CDH6-ECD-His = biological target: T1, Human CDH6-ECD-His (human, UniProt P55285 54-615); test: ELISA, antigen coated at 1 ug/mL
T1 construct: extracellular domain; Bought protein; also called human CDH6-ECD-His recombinant protein; Human CDH6-EC6D-His; not shown: His tag
T1 sequence (looked up): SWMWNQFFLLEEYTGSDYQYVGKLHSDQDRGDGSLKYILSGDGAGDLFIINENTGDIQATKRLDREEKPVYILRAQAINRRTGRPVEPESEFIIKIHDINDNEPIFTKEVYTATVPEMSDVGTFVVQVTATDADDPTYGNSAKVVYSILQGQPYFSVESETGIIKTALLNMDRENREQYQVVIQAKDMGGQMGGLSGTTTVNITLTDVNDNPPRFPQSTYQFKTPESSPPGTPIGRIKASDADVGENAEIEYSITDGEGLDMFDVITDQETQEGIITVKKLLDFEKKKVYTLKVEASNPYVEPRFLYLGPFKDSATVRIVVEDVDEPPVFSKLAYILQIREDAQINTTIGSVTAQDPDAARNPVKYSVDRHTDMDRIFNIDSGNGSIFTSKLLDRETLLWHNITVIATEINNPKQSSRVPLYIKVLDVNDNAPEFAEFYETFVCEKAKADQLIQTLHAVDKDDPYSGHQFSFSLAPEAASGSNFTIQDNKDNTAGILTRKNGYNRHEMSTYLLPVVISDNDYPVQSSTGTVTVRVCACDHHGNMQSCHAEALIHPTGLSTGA
Procedure: (§1) CDH9 and […] are the most closely related family members to CDH6. Binding of CL069707-H1L1 on human CDH6, CDH9 and CDH10 ECD domains were analyzed by ELISA Binding Assay. Human […], CDH9-ECD-His and CDH10-ECD-His antigens were obtained from Acro Biosystems, Inc. 100 μL of 1 μg/mL of the antigens diluted in PBS were added to 96 well plates and incubated in 4° C. overnight. The plates were washed 3 times with 300 μL of washing buffer. Then 100 μL/well of 1% BSA blocking reagent were added to the plates, and incubated at 37° C. for 1 h then the blocking reagent were discarded. A 3-fold serial dilution of CL069707-H1L1 was added to the plates and then incubated at 37° C. for 1 h. Then the plates were washed 3 times with 300 μL of washing buffer. 100 μL/well of HRP-conjugated anti-Human antibody diluted in 1% BSA were added to the plates and then incubated at 37° C. for 1 h. The plates were washed 3 times with 300 μL of washing buffer. 100 μL/well of TMB substrate were added to the plates and incubated for about 10 min in room temperature. Then the reaction was stopped with 100 μL/well of stopping solution. OD450 was read with a plate reader and the data were processed.

human CDH9-ECD-His = biological target: T2, human CDH9-ECD-His (human, UniProt Q9ULB4 54-615); test: ELISA, antigen coated at 1 ug/mL, 3-fold dilutions of CL069707-H1L1, HRP anti-human antibody, OD450
T2 construct: extracellular domain; Bought protein; also called CDH9-ECD-His protein; not shown: His tag
T2 sequence (looked up): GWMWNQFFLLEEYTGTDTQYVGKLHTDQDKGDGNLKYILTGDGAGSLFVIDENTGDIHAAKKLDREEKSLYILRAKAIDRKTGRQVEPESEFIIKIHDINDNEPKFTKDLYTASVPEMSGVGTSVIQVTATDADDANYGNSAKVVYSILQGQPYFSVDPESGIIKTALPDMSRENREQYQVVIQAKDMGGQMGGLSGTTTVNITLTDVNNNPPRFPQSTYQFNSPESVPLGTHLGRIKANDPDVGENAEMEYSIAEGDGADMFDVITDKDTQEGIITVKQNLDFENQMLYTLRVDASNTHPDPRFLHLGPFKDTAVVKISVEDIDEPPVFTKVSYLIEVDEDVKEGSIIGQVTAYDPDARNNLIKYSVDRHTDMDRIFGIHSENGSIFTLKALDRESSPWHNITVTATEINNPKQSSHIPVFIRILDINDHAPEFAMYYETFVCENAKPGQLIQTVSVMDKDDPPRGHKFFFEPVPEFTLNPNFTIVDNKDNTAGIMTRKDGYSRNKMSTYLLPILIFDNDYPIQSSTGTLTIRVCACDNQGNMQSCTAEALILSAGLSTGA
Procedure: as §1

human CDH10-ECD-His = biological target: T3, human CDH10-ECD-His (human, UniProt Q9Y6N8 55-613); test: as above
T3 construct: extracellular domain; Bought protein; also called CDH10-ECD-His protein; not shown: His tag
T3 sequence (looked up): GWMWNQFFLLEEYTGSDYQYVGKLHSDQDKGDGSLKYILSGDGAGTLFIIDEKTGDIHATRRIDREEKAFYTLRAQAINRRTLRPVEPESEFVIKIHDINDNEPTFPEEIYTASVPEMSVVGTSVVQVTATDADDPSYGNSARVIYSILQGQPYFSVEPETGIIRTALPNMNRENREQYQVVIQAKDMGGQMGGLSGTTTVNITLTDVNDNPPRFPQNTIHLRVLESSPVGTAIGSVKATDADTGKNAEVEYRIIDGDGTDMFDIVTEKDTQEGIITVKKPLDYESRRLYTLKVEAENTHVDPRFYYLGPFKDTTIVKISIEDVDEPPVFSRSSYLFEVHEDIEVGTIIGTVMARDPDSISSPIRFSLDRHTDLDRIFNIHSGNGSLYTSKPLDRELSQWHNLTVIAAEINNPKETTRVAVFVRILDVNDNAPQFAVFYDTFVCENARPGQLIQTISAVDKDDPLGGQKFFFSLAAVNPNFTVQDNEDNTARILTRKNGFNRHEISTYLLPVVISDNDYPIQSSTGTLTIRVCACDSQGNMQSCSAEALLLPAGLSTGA
Procedure: as §1

B1: CL069707-H1L1 (antibody, human IgG1, kappa, V domains shown)
VH: EVQLVESGGGLVQPGGSLRLSCAASGFTFTTYAMNWVRQAPGKGLEWVARIRIKNNNYATYYADSVTDRFTISRDDSKNSLYLQMNSLKTEDTAVYYCVRPDYGNYGLAYWGQGTLVTVSS
VL: DIQLTQSPSSLSASVGDRVTITCSASSSISSHYLHWYQQKPGKSPKLLIYRSFYLASGVPSRFSGSGSGTDFTLTISSLQPEDFATYYCQQDIVPLTFGQGTKLEIKR
notes: Humanized IgG1/kappa, produced in 293 cells; also called humanized CL069707-H1L1
Q: For B1, which EC50 (Human CDH6-ECD-His) is on record?
A: 100 pM

Q: Does B1 bind (human CDH9-ECD-His)?
A: no binding (tested: 100 nM)

Q: Does B1 bind (human CDH10-ECD-His)?
A: no binding (tested: 100 nM)
